Laboratory results: publication PMC12733253, “NFE2 Truncation Mutants Protect Wild-Type NFE2 from ITCH-Dependent Degradation” (International Journal of Molecular Sciences, 2025)

Target: itchy E3 ubiquitin protein ligase (ITCH), wild type, MYC-tagged (UniProt Q96J02-2 1-862)
Test: cell-based or functional assay

Chain of itchy E3 ubiquitin protein ligase (ITCH), wild type, MYC-tagged (Q96J02 other isoform, or with tags, fused parts or gaps): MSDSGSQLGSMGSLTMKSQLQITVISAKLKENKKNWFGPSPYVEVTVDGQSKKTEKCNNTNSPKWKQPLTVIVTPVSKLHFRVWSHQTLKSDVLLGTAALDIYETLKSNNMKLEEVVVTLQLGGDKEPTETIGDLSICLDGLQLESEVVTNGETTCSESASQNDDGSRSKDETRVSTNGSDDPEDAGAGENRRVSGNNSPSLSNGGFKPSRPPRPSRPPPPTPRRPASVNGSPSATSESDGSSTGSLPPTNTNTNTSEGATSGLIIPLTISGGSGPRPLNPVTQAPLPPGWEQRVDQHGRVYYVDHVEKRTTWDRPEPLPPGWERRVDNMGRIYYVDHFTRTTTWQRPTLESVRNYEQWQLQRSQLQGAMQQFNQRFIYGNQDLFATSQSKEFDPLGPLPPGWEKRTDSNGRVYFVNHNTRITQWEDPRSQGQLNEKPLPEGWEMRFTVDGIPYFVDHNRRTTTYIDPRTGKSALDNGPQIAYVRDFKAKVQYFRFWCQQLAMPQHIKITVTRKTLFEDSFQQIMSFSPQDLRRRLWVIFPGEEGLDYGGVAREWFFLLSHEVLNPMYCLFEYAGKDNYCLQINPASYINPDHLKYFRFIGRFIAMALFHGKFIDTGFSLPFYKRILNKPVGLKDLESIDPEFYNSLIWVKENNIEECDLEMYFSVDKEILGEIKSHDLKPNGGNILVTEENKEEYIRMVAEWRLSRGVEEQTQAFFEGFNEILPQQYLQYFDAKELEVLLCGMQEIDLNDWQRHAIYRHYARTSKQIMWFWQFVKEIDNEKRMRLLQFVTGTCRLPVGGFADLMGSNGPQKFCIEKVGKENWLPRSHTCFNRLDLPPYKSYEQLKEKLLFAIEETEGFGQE

B1: wild-type nuclear factor erythroid 2 (NFE2), HA-tagged (natural protein, human, UniProt Q16621 1-373, looked up)
chain: MSPCPPQQSRNRVIQLSTSELGEMELTWQEIMSITELQGLNAPSEPSFEPQAPAPYLGPPPPTTYCPCSIHPDSGFPLPPPPYELPASTSHVPDPPYSYGNMAIPVSKPLSLSGLLSEPLQDPLALLDIGLPAGPPKPQEDPESDSGLSLNYSDAESLELEGTEAGRRRSEYVEMYPVEYPYSLMPNSLAHSNYTLPAAETPLALEPSSGPVRAKPTARGEAGSRDERRALAMKIPFPTDKIVNLPVDDFNELLARYPLTESQLALVRDIRRRGKNKVAAQNCRKRKLETIVQLERELERLTNERERLLRARGEADRTLEVMRQQLTELYRDIFQHLRDESGNSYSPEEYALQQAADGTIFLVPRGTKMEATD
B1 was tested, and the “NFE2 half-life in a cycloheximide chase, HEK-293T co-transfected with wt NFE2 and wt ITCH (approximately 3.5 h with empty vector; 6.5 h with inactive ITCH-C830A)” value was about 2 h.
